B1: Vesicle-associated membrane protein 7 (Mus musculus), P70280 (parent)
chain: MAILFAVVARGTTILAKHAWCGGNFLEVTEQILAKIPSENNKLTYSHGNYLFHYICQDRIVYLCITDDDFERSRAFSFLNEVKKRFQTTYGSRAQTALPYAMNSEFSSVLAAQLKHHSENKSLDKVMETQAQVDELKGIMVRNIDLVAQRGERLELLIDKTENLVDSSVTFKTTSRNLARAMCMKNIKLTIIIIIVSIVFIYIIVSLLCGGFTWPNCVKK

Variants of: B1
Details: with anr27_human ANKRD27, Q96NW4
Sequence of anr27_human ANKRD27, Q96NW4 (Q96NW4 whole entry): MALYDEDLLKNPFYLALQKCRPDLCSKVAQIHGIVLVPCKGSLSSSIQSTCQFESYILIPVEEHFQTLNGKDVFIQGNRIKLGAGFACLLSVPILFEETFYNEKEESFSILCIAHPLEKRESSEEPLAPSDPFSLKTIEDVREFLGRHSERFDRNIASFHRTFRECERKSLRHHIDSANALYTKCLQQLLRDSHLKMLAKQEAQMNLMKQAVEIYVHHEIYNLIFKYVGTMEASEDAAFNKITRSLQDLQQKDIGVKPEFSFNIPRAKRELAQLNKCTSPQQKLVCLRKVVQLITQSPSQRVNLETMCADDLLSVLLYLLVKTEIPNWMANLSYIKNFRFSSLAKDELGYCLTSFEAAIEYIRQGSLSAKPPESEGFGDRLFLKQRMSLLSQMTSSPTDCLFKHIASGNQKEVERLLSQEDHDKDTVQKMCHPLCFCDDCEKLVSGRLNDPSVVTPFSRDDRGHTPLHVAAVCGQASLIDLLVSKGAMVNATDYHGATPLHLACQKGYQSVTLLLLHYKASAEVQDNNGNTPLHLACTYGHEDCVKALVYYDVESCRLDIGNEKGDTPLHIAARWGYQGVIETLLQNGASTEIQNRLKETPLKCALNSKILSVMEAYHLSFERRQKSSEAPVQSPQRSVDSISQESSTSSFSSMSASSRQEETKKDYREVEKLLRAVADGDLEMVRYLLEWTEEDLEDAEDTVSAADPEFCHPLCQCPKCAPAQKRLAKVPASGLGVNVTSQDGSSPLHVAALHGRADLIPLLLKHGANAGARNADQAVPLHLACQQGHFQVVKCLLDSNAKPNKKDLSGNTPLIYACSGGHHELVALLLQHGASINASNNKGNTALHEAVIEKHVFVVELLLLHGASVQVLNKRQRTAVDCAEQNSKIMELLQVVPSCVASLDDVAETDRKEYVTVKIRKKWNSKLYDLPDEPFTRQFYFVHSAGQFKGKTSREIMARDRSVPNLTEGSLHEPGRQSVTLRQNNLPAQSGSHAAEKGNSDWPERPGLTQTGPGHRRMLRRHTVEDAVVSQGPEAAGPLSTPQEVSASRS

effect of a mutation on the interaction	Variant
disrupting interaction strength	MAILFAVVARGTTILAKHAWCGGNFLEVTEQILAKIPSENNKLTYSHGNYLFHYICQDRIVYLCITDDDFEASRAFSFLNEVKKRFQTTYGSRAQTALPYAMNSEFSSVLAAQLKHHSENKSLDKVMETQAQVDELKGIMVRNIDLVAQRGERLELLIDKTENLVDSSVTFKTTSRNLARAMCMKNIKLTIIIIIVSIVFIYIIVSLLCGGFTWPNCVKK [R72A]
disrupting interaction strength	MAILFAVVARGTTILAKHAWCGGNFLEVTEQILAKIPSENNKLTYSHGNYLFHYICQDRIVYLCITDDAFFRDRAFSFLNEVKKRFQTTYGSRAQTALPYAMNSEFSSVLAAQLKHHSENKSLDKVMETQAQVDELKGIMVRNIDLVAQRGERLELLIDKTENLVDSSVTFKTTSRNLARAMCMKNIKLTIIIIIVSIVFIYIIVSLLCGGFTWPNCVKK [D69A;E71F;S73D]
